Source: patent publication US4701455A, “Biopterin analogs” (Burroughs Wellcome Co., priority 1983, dated 1987)

B1: Phenylalanine hydroxylase (Rattus norvegicus) (protein)
chain: MAAVVLENGVLSRKLSDFGQETSYIEDNSNQNGAISLIFSLKEEVGALAKVLRLFEENDINLTHIESRPSRLNKDEYEFFTYLDKRTKPVLGSIIKSLRNDIGATVHELSRDKEKNTVPWFPRTIQELDRFANQILSYGAELDADHPGFKDPVYRARRKQFADIAYNYRHGQPIPRVEYTEEEKQTWGTVFRTLKALYKTHACYEHNHIFPLLEKYCGFREDNIPQLEDVSQFLQTCTGFRLRPVAGLLSSRDFLGGLAFRVFHCTQYIRHGSKPMYTPEPDICHELLGHVPLFSDRSFAQFSQEIGLASLGAPDEYIEKLATIYWFTVEFGLCKEGDSIKAYGAGLLSSFGELQYCLSDKPKLLPLELEKTACQEYSVTEFQPLYYVAESFSDAKEKVRTFAATIPRPFSVRYDPYTQRVEVLDNTQQLKILADSINSEVGILCNALQKIKS
B2: Tryptophan hydroxylase (Rattus norvegicus) (protein)
chain: MQPAMMMFSSKYWARRGLSLDSAVPEEHQILGGLTQNKATASKSEDKRSGKDTSESSKTAVVFSLKNEVGGLVRALRLFQEKHVNMLHIESRRSRRRSSEVEIFVDCECGKTEFNELIQLLKFQTTIVTLNPPDNIWTEEEELEDVPWFPRKISELDRCSHRVLMYGTELDADHPGFKDNVYRQRRKYFVDVAMGYKYGQPIPRVEYTEEETKTWGVVFRELSKLYPTHACREYLKNFPLLTKYCGYREDNVPQLEDVSMFLKERSGFTVRPVAGYLSPRDFLAGLAYRVFHCTQYVRHGSDPLYTPEPDTCHELLGHVPLLADPKFAQFSQEIGLASLGASDEDVQKLATCYFFTIEFGLCKQEGQLRAYGAGLLSSIGELKHALSDKACVKAFDPKTTCLQECLITTFQDAYFVSESFEEAKEKMRDFAKSITRPFSVYFNPYTQSIEILKDTRSIENVVQDLRSDLNTVCDALNKMNQYLGI

Key:
[1] = substrate: C[C@H](O)[C@H](O)[C@H]1CNc2nc(N)[nH]c(=O)c2N1; assay: purified protein, by the assay type; conditions: other: rat liver enzyme; Km of substrate with the pterin as cofactor
[2] = substrate: C[C@H](O)[C@H](O)[C@H]1CNc2nc(N)[nH]c(=O)c2N1; assay: cells, lysate or membranes named; conditions: other: Km of substrate with the pterin as cofactor

Protein	Km [1] [µM]	Km [2] [µM]
B1	123	
B2		15
